Assay results published in patent US20130079280A1 (MEDLMMUNE, published 2013).
Substitutions are numbered along the chain they refer to. Like-named read-outs stand apart in the source and are kept apart here. Values belong to the binder of their own block, whether it stands above or below them.

Key:
[1] = target: T1, human TRAIL R2-Fc fusion protein (human, UniProt O14763 54-182, limits assumed, biotinylated in the competition ELISA of Example 3); assay: competition ELISA: plate coated with F4 mod 1, human TRAIL R2-Fc, monomer as competitor
T1 construct: also called biotinylated TRAIL R2-Fc; soluble TRAIL R2-Fc; not shown: Fc part

[2] = target: T1, human TRAIL R2-Fc fusion protein; assay: competition ELISA: plate coated with F4 mod 1, 0.75 nM human TRAIL R2-Fc, purified monomer as competitor
[3] = target: T1, human TRAIL R2-Fc fusion protein; assay: competition ELISA; F4 mod 1 coated plate, human TRAIL R2-Fc
[4] = target: T2, Human CD40L, recombinant (E. coli produced) (human, UniProt P29965 113-261, limits assumed, His-tagged (capture ELISA) or biotinylated (AlphaScreen)); assay: capture ELISA: His-tagged construct captured from E. coli media on anti-His antibody, His-tagged HuCD40L preincubated with biotinylated anti-His antibody titrated, streptavidin-HRP/TMB
T2 construct: also called HuCD40L; huCD40L
T2 sequence (looked up): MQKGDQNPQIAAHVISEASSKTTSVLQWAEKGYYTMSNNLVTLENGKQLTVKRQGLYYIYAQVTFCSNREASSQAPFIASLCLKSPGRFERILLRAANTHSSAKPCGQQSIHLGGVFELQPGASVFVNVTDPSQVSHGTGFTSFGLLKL
Method: (§1) A 96-well MaxiSorb plate was coated with Qiagen anti-His antibody at 2 μg/ml overnight. The coated plate was blocked with PBS containing 0.1% v/v Tween-20 and 4% w/v skim milk powder (PBST 4% milk) for 1.5 hours. The coated plate was washed with PBST and diluted bacterial media (diluted 30-fold) containing soluble expressed proteins was added and plates were incubated at room temperature for 2 hours. […] The absorbance was read at 450 nm.

[5] = target: T1, human TRAIL R2-Fc fusion protein; assay: competition ELISA; plate coated with A9(1C12), 0.75 nM biotinylated TRAIL R2-Fc
Method: Plates were blocked with PBS 0.1% Tween 20+10 mg/ml BSA. […] Absorbance was read at 450 nm.

cynomolgus TRAIL R2-Fc [6] = target: T3, cynomolgus TRAIL R2-Fc (cynomolgus monkey (Macaca fascicularis)); assay: competition ELISA: plate coated with F4 mod 1, cyno TRAIL R2-Fc, monomer as competitor
T3 construct: the ELISAs used the Fc fusion; also called cyno TRAIL R2-Fc; cyno TRAIL-R2-Fc

cynomolgus TRAIL R2-Fc [7] = target: T3, cynomolgus TRAIL R2-Fc; assay: competition ELISA; F4 mod 1 coated plate, cyno TRAIL R2-Fc
cynomolgus TRAIL R2-Fc [8] = target: T3, cynomolgus TRAIL R2-Fc; assay: competition ELISA: plate coated with F4 mod 1, 0.75 nM cyno TRAIL R2-Fc, purified monomer as competitor
[9] = target: T1, human TRAIL R2-Fc fusion protein; assay: capture ELISA: His-tagged construct captured from E. coli media on anti-His antibody, biotinylated TRAIL R2 (axis: TrailR2-Fc) titrated, streptavidin-HRP/TMB
Method: as §1

[10] = target: T4, TRAIL R2, recombinant (format not stated) (human, UniProt O14763 54-182, limits assumed, biotinylated in the ELISAs of paragraph 539 and paragraph 556); assay: capture ELISA; Tn3 captured on anti-His, biotinylated TRAIL R2
T4 construct: also called biotinylated TRAIL R2; TRAIL R2 biotin
Method: as §1

[11] = target: T5, human TRAIL R2 on the cell surface (H2122, Colo205, Jurkat and other tumor cell lines) (human, UniProt O14763 56-440); assay: cell-based or functional assay
[12] = target: T5, human TRAIL R2 on the cell surface …; assay: cell-based or functional assay; remark: listed apart in the source
[13] = target: T5, human TRAIL R2 on the cell surface …; assay: cell-based or functional assay; remark: listed apart in the source

B1: F4, TRAIL R2-binding Tn3 monomer (designed binder)
chain: AIEVKDVTDTTALITWAKPWVDPPPLWGCELAYGIKDVPGDRTTIDLQQKHTAYSIGNLKPDTEYEVSLICFDPYGLKSRPAKETFTTGGGTLGHHHHHHHH
notes: also called clone F4; original F4
IC50 [1]: 89 nM | IC50 [2]: 89 nM | fold difference in binding among F4, F4 mod 1 and F4 mod 12 [3]: ≤ 6 fold

B3: F4 mod 1, cyno cross reactive TRAIL R2-binding Tn3 monomer (designed binder)
chain: B1 chain with D46G
notes: F4 with a D to G mutation two amino acids before the DE loop; also called F4 mod 1 monomer
IC50 (cynomolgus TRAIL R2-Fc [6]): 34 nM | fold difference in binding between F4 mod 1 and F4 mod 12 (cynomolgus TRAIL R2-Fc [7]): ≤ 2 fold | IC50 [1]: 15 nM | IC50 (cynomolgus TRAIL R2-Fc [8]): 34 nM | IC50 [2]: 15 nM | fold difference in binding among F4, F4 mod 1 and F4 mod 12 [3]: ≤ 6 fold

B4: F4 mod 12, germline engineered cyno cross reactive TRAIL R2-binding Tn3 monomer (designed binder)
chain: SQIEVKDVTDTTALITWAKPWVDPPPLWGCELTYGIKDVPGDRTTIGLQQKHNQYSIGNLKPDTEYEVSLICFDPYGLKSRPAKETFTTGLGTLGHHHHHHHH
notes: also called F4 mod 12 monomer
IC50 (cynomolgus TRAIL R2-Fc [6]): 50 nM | fold difference in binding between F4 mod 1 and F4 mod 12 (cynomolgus TRAIL R2-Fc [7]): ≤ 2 fold | IC50 [1]: 22 nM | fold difference in binding among F4, F4 mod 1 and F4 mod 12 [3]: ≤ 6 fold

B6: A3 (1E11), tetravalent linear tandem Tn3 (designed binder)
chain: SGGGGSAIEVKDVTDTTALITWAKPWVDPPPLWGCELAYGIKDVPGDRTTIDLQQKHTAYSIGNLKPDTEYEVSLICFDPYGAKSNPAKETFTTGGGGSGGGGSGGGGSAIEVKDVTDTTALITWAKPWVDPPPLWGCELAYGIKDVPGDRTTIDLQQKHTAYSIGNLKPDTEYEVSLICFDPYGAKSNPAKETFTTGGGGSGGGGSGGGGSAIEVKDVTDTTALITWAKPWVDPPPLWGCELAYGIKDVPGDRTTIDLQQKHTAYSIGNLKPDTEYEVSLICFDPYGAKSNPAKETFTTGGGGSGGGGSGGGGSAIEVKDVTDTTALITWAKPWVDPPPLWGCELAYGIKDVPGDRTTIDLQQKHTAYSIGNLKPDTEYEVSLICFDPYGAKSNPAKETFTTGGGGSGGGGSGTLGHHHHHHHH
Maximum Inhibition %, H2122 [11]: 91% | IC50 [5]: 0.4 nM | fold higher affinity relative to the monomeric A1 protein [5]: 30 to 40 fold | fold lower IC50 than the monomer A1 [5]: ≥ 30 fold | potency in inhibiting H2122 cell viability relative to A9 [12]: ~150 fold | Maximum Inhibition %, H2122 [13]: 91%

Results, then the binder that gave them:

binding result [4]: no binding (tested: 5.00E-02 ug/ml) | IC50 [5]: 16 nM
B2: A1 (1E11), monovalent TRAIL R2-specific Tn3 scaffold (designed binder)
chain: B1 chain with L77A, R80N
notes: His-tagged monomer expressed in E. coli; also called 1E11 monomer

binding result [9]: no binding (tested: 0.2 ug/ml) | binding result [10]: no binding
B5: 79, monovalent human CD40L-specific Tn3 (designed binder)
chain: IEVKDVTDTTALITWIPPHNADSSIIGCELTYGIKDVPGDRTTIDLYDVAFDYSIGNLKPDTEYEVSLICDTFYGFDSNPAKETFTTGGGTLGHHHHHHHH
notes: 8xHis-tagged, captured from E. coli media; also called 79 (79); clone 79

IC50 [5]: 0.5 nM | fold higher affinity relative to the monomeric A1 protein [5]: 30 to 40 fold | fold lower IC50 than the monomer A1 [5]: ≥ 30 fold
B7: A2 (1E11), bivalent linear tandem Tn3 (designed binder)
chain: SGGGGSAIEVKDVTDTTALITWAKPWVDPPPLWGCELAYGIKDVPGDRTTIDLQQKHTAYSIGNLKPDTEYEVSLICFDPYGAKSNPAKETFTTGGGGSGGGGSGGGGSAIEVKDVTDTTALITWAKPWVDPPPLWGCELAYGIKDVPGDRTTIDLQQKHTAYSIGNLKPDTEYEVSLICFDPYGAKSNPAKETFTTGGGGSGGGGSGTLGHHHHHHHH
